Data set [1] has as its system lipoatrophic mice. As to the kind of experiment: Lipoatrophic mice (PPAR-γ+/− mice treated with HX531) with or without adiponectin, gAd or leptin. The format is in vivo, mouse. The note with it: for Liver TG content / Serum FFA / Serum TG / Skeletal muscle TG content: HF diet; for insulin resistance (FIG. 8): mice without adipose tissue, administration at a physiological concentration; for hyperglycemia and hyperinsulinemia (insulin resistance index, FIG. 8): lipoatrophic mice, continuous systemic infusion. The method, then: (§1) The measurements of [^14C] CO2 production from [1-^14C] palmitic acid were performed using liver and muscle slices as described (Diabetes 47, 1841-1847 (1998)). Liver and muscle homogenates were prepared, and tissue triglyceride content was determined with an extract solution (CHCl3:CH3OH=2:1). The remainder of the liver and muscle was immediately frozen in liquid nitrogen and stored at −80° C. until measurement of the enzymatic activity of ACO. ACO activity in the light mitochondrial fraction of liver and muscle was measured by assay that was based on the H2O2 dependent oxidation of leuco-dichlorofluorescein (Diabetes 47, 1841-1847 (1998)).
Unless otherwise described herein, administration was performed through continuous systemic infusion (pump) in combination with a high-fat (HF) diet for the final twelve days of the six-week HX531 treatment.
FIGS. 9 and 10 show mRNAs of fatty-acid translocase (FAT)/CD36, ACO, UCP2, and PPAR-α in mouse skeletal muscle and in liver, respectively. […] HX531 was administered as a 0.1% food admixture. Mice were stimulated with or without 1 U/g body weight of insulin for two minutes. Lysates were subjected to immunoprecipitation (IP) and immunoblotting through use of the antibodies described in Mol. Cell. Biol. 16, […] (1996).

In data set [2] the test system is lipoatrophic mice. The data set is described as above. The format is in vivo, mouse. The note with it: HX531 for four weeks.
Data set [3] concerns db/db mice. As to the kind of experiment: Rosiglitazone treatment of db/db mice on high-fat diet (adiponectin expression, glucose tolerance test).
Data set [4] concerns KKA^y mice. As to the kind of experiment: Adiponectin administration to KKAy mice on high-fat diet. The format is in vivo, mouse. The note with it: adiponectin-administered KKAy mice.
For data set [5], the system named is KKA^y mice. The description is as above. Type of data set: in vivo, mouse. As to conditions: for ACO activity, liver / ACO activity, skeletal muscle / Fatty acid oxidation [14C] palmitate→CO2, liver / Fatty acid oxidation [14C] palmitate→CO2, skeletal muscle / Rectal temperature / Serum FFA / Serum TG / TG content, liver / TG content, skeletal muscle: high fat diet, two weeks. The method, then:
as §1
The mice were fed an HC or HF diet.
The following values were determined through use of KKA^y mice: acyl-CoA oxidase (ACO) activity and fatty acid oxidation in the skeletal muscle and in the liver, tissue triglyceride content in the skeletal muscle and in the liver, and serum free fatty acid level and serum triglyceride level. Mice were fed with high fat diet, and full-length adiponectin (Ad) or adiponectin globular domain (gAd) was administered to each mice at a dose shown in Table 2 for two weeks.

The test system of data set [6] is C57 mice.
Procedure: (§2) Adiponectin or leptin was administered to mice through intraperitoneal injection or continuous systemic infusion as described (Nature 401, 73-76 (1999)). An Alzet micro-osmotic pump (model 1002, Alza) was inserted subcutaneously in the back of each mouse. A daily dose (shown in Figures) of recombinant leptin (Sigma) or adiponectin was dissolved in a total volume of 0.1 mL of PBS, and the solution was delivered to mice through the pump for twelve days.
(§3) The areas of glucose and insulin curves were calculated by multiplying the cumulative mean height of the glucose values (1 mg/ml=1 cm) and insulin values (1 ng/ml=1 cm), respectively, by time (60 min=1 cm) (Am. J. Physiol. 240, E482-488 (1981)).
(§4) The mice were fed an HC or HF diet. In addition, Ad or gAd was administered, or none of these was administered, to the mice at a predetermined dose (μg/day).
Data set [7] deals with PPAR-γ+/− mice. As to the kind of experiment: Adiponectin infusion in PPAR-γ+/− mice on high-fat diet without HX531 (tissue TG, serum FFA/TG). Type of data set: in vivo, mouse. As to conditions: HF diet, no HX531, Ad 50 μg/day continuous infusion 12 days. The method, then: as §1
While PPAR-γ^+/− mice were treated with HX531 for six weeks (+) or untreated (−), recombinant full-length adiponectin (Ad), gAd, or leptin (Lep) was administered to each PPAR-γ^+/− mouse at a predetermined dose (μg/day). Administration was performed through continuous systemic infusion in combination with the high-fat (HF) diet for the final twelve days of the six-week HX531 treatment (six weeks).

Data set [8] deals with db/db mice.
Procedure: as §2, §3, §4
The subject of data set [9] is KK mice. As to the kind of experiment: Adiponectin administration to KK mice (serum leptin). Type of data set: in vivo, mouse.
Procedure: as §2
Setting [10] is: PPAR-γ+/− mice, HX531 alone for 6 weeks.
The mark [11] stands for this setting: HX531 6 weeks + Ad 50 μg/day continuous infusion final 12 days.
Setting [12] is: db/db mice, adiponectin replenishment.
[13] abbreviates: HX531 6 weeks + gAd 2.5 μg/day continuous infusion final 12 days.
Where [14] appears, read: gAd at a low concentration, mRNA (FIG. 9).
Setting [15] is: normal C57 mice, high-fat diet, two weeks.

As to `CN1c2ccc([N+](=O)[O-])cc2N=C(c2ccc(C(=O)O)cc2)c2cc3c(cc21)C(C)(C)CCC3(C)C` [HX531, reference compound], in data set [1] (setting [10]), the “Liver TG content” value is on record as 19.36 ± 1.23 mg/g tissue, the “Serum FFA” value is 1.48 ± 0.25 mEq/L, the “Serum TG” value turned out to be 201.4 ± 25.3 mg/dL and the “Skeletal muscle TG content” value was determined as 15.96 ± 1.47 mg/g tissue. Moreover, in [1] (PPAR-γ+/− mice, HX531 for three weeks), the “lowering of expression of lipoprotein lipase (LPL) in WAT” value was at least 90%. For the same molecule, in data set [2], the “visible WAT” value is listed as “disappearance of visible WAT”.
On to `CN(CCOc1ccc(CC2SC(=O)NC2=O)cc1)c1ccccn1` (stereo not drawn) [Rosiglitazone], for which, in data set [3], the adipose tissue mass amounted to 2.84 ± 0.16 g and the body weight is 47.9 ± 1.0 g.
Turning to leptin: recombinant leptin (Sigma), in data set [1], the “insulin resistance (FIG. 8)” value is given as “alleviate their insulin resistance, albeit partially”.

B1: Ad: recombinant full-length mouse adiponectin, histidine-tagged fusion protein expressed in bacteria (protein, UniProt Q15848 19-244, looked up)
Adiponectin: ETTTQGPGVLLPLPKGACTGWMAGIPGHPGHNGAPGRDGRDGTPGEKGEKGDPGLIGPKGDIGETGVPGAEGPRGFPGIQGRKGEPGEGAYVYRSAFSVGLETYVTIPNMPIRFTKIFYNQQNHYDGSTGKFHCNIPGLYYFAYHITVYMKDVKVSLFKKDKAMLFTYDQYQENNVDQASGSVLLHLEVGDQVWLQVYGEGERNGLYADNDNDSTFTGFLLYHDTN
Take B1: the “expression of enzymes involved in β-oxidation and UCP2 in skeletal muscle” value in data set [4] is “increased”. In [1] (setting [11]), the “Liver TG content” value is recorded as 16.19 ± 0.72 mg/g tissue, the “Serum FFA” value is 0.61 ± 0.13 mEq/L, the “Serum TG” value was found to be 106.6 ± 18.1 mg/dL and the “Skeletal muscle TG content” value stood at 7.74 ± 0.65 mg/g tissue. For the same molecule, in [1] (adiponectin-administered lipoatrophic mice (FIG. 11)), the “insulin-induced tyrosine phosphorylation of insulin receptor and insulin-receptor substrate 1 and insulin-stimulated phosphorylation of Akt kinase in skeletal muscle” value is on record as “increase”. For the same molecule, in data set [1], the “hyperglycemia and hyperinsulinemia (insulin resistance index, FIG. 8)” value was “significantly ameliorated”; the “insulin resistance (FIG. 8)” value was “not sufficient to completely ameliorate insulin resistance”. In data set [5] (Ad 50 μg/day), the “ACO activity, liver” value came out at 3.04 ± 0.85 nmol/mg/min; the “ACO activity, skeletal muscle” value amounted to 0.37 ± 0.04 nmol/mg/min; the “Fatty acid oxidation [14C] palmitate→CO2, liver” value was determined as 2.92 ± 0.29 nmol/g/h; the “Fatty acid oxidation [14C] palmitate→CO2, skeletal muscle” value is given as 3.95 ± 0.58 nmol/g/h. In data set [5] (Ad 50 μg/day), the Rectal temperature is 37.3 ± 0.2 °C; the “Serum FFA” value is given as 0.67 ± 0.09 mEq/L; the “Serum TG” value turned out to be 101.3 ± 19.7 mg/dL; the “TG content, liver” value is recorded as 16.15 ± 0.83 mg/g tissue. Besides, the “TG content, skeletal muscle” value in [5] (Ad 50 μg/day) is 8.75 ± 0.58 mg/g tissue. Moreover, the serum adiponectin levels entry in data set [6] (mouse, in vivo) is “partially restored”. For the same molecule, the “expression of leptin in WAT” value in [6] (wild-type mice) is listed as “did not alter”. In addition, the “hyperglycemia and hyperinsulinemia induced by high-fat diet (GTT)” value in data set [6] (wild-type mice on high-fat diet, continuous systemic infusion of low doses) was “significantly ameliorated”. Besides, in data set [7], the “Liver TG content” value is 6.45 ± 0.26 mg/g tissue, the “Serum FFA” value amounted to 0.35 ± 0.02 mEq/L, the “Serum TG” value was 60.5 ± 6.0 mg/dL and the “Skeletal muscle TG content” value was determined as 5.47 ± 0.32 mg/g tissue. In [8] (setting [12]), the “hyperinsulinemia (GTT, FIG. 14)” value is “significantly ameliorated” and the “leptin receptor deficiency-induced hyperglycemia (GTT, FIG. 13)” value is recorded as “significantly ameliorated”. The serum adiponectin levels result in data set [8] (mouse, in vivo) is on record as “partially restored”.

B2: gAd: C-terminal globular domain of adiponectin, recombinant histidine-tagged fusion protein (protein, listed as Homo sapiens)
chain: AFSVGLETYVTIPNMPIRFTKIFYNQQNHYDGSTGKFHCNIPGLYYFAYHITVYMKDVKVSLFKKDKAMLFTYDQYQENNVDQASGSVLLHLEVGDQVWLQVYGEGERNGLYADNDNDSTFTGFLL
modifications: CDS (1)..(735)
As for B2, in data set [1] (setting [13]), the “Liver TG content” value is recorded as 13.81 ± 0.91 mg/g tissue, the “Serum FFA” value was 0.43 ± 0.14 mEq/L, the “Serum TG” value came to 100.3 ± 17.5 mg/dL and the “Skeletal muscle TG content” value was 3.88 ± 1.74 mg/g tissue. Besides, in data set [1] (setting [14]), the “expression of CD36, acyl-CoA oxidase (ACO) and uncoupling protein (UCP) 2 in skeletal muscle” value was “increased”; the “expression of PPAR-α in skeletal muscle” value is “increased”. For the same molecule, the “expression of CD36 in the liver” value in data set [1] (gAd at a low concentration, mRNA (FIG. 10)) was “decreased”. The “hyperglycemia and hyperinsulinemia (insulin resistance index, FIG. 8)” value in data set [1] is “much more potently than full-length adiponectin”. For the same molecule, in [5], the serum leptin levels was found to be 57.9 ± 5.7 ng/mL. Besides, in data set [5] (gAd 2.5 μg/day), the “ACO activity, liver” value is on record as 2.89 ± 0.35 nmol/mg/min; the “ACO activity, skeletal muscle” value is reported as 0.42 ± 0.04 nmol/mg/min; the “Fatty acid oxidation [14C] palmitate→CO2, liver” value came out at 2.89 ± 0.21 nmol/g/h; the “Fatty acid oxidation [14C] palmitate→CO2, skeletal muscle” value worked out at 4.06 ± 0.44 nmol/g/h. In addition, in [5] (gAd 2.5 μg/day), the Rectal temperature stood at 37.7 ± 0.1 °C; the “Serum FFA” value came out at 0.39 ± 0.04 mEq/L; the “Serum TG” value is 96.4 ± 18.3 mg/dL; the “TG content, liver” value amounted to 16.04 ± 0.91 mg/g tissue. In data set [5] (gAd 2.5 μg/day), the “TG content, skeletal muscle” value turned out to be 8.06 ± 0.61 mg/g tissue. Also, the Food intake in data set [6] (C57 mice on high-fat diet) came out at 6.28 ± 0.51 g/day. In data set [6] (setting [15]), this molecule registered a WAT weight of 0.48 ± 0.04 g and a body weight of 20.6 ± 2.1 g. Also, in data set [6] (wild-type mice), the serum leptin levels amounted to 10.4 ± 2.6 ng/mL. In data set [9], the serum leptin levels was 13.4 ± 2.7 ng/mL. In data set [8] (db/db mice), this molecule displayed a serum leptin levels of 145.2 ± 14.7 ng/mL.

(Values after patent US20060199761A1, “Insulin resistance improving agent” (Japan Science And Technology Agency, priority 2002, published 2006).)
